From article doi:10.1101/2024.06.21.600134 (bioRxiv, 2024)

Target: LPD-3 (C-terminally tagged, from lpd3::mvenus worms) (C. elegans, UniProt A0A0K3AWP8 1-4022)
Assay: affinity purification with mass spectrometry

B1: Spigot (natural protein, C. elegans, UniProt Q4W5H0 1-276, looked up)
chain: MRIFVFDGTSVIYVCAVIILILIWVAIIGQRQIWRHRHNVARVRPQVSLSSRISSKKAVLLRETQLDTVMRLRCENQARLTDCISLQFHGEKPYVHRMIAVDEVTLEIDGQLNRIEGAVQRQAGESTYSYLKRIREKVPSIPLNLVHRIAFLQESARFRPEKFDVEQVMELRSLLNQFLRILSAEYDSLSDEPDMAAPRGVIASFYQFGQKIMPNNSGSKRRRNKFGGSDGVRLLMKEREEQLSLLSPLARASADSPAPAAHLRRQSDSHSALLPQ
B1: binds.
